# T1: HPV51 L1/L2-capsid (human papillomavirus type 51, UniProt P26539 1-468; P26536 1-504)
# T1 construct: Capsid of co-expressed L1 and L2 from 293FT cells; The pseudovirus is the same capsid with a reporter plasmid; also called L1/L2-capsid of type 51; HPV51 pseudovirus
# T1 sequence 1: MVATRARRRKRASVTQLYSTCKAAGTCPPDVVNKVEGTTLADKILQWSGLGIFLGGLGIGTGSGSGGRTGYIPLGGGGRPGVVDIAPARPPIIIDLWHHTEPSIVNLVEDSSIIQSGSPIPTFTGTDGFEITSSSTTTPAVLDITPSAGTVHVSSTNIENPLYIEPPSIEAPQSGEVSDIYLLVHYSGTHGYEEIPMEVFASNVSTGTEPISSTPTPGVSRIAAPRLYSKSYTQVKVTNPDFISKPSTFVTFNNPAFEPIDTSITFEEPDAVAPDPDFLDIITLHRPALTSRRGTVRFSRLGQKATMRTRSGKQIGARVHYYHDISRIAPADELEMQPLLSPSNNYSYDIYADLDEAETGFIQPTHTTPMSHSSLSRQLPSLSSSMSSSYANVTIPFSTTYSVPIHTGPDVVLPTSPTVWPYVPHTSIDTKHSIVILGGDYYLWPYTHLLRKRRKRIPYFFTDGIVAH
# T1 sequence 2: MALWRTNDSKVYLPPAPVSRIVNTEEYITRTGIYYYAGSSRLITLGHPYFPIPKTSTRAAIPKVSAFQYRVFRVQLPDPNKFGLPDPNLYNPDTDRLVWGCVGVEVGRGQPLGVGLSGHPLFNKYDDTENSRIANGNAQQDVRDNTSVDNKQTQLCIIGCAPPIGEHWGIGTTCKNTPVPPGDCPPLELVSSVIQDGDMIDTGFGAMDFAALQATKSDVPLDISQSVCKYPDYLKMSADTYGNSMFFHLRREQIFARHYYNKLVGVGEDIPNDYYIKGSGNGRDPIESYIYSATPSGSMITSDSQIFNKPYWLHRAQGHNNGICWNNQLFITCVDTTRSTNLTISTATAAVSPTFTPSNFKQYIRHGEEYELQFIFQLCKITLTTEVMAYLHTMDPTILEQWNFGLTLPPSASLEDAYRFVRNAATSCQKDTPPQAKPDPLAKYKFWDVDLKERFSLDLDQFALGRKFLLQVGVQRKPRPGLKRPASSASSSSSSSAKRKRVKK
# B1: monoclonal antibody 13B (antibody, V domains shown)
# VH: DVQLQESGPGLVKPSQSLSLSCTVTGYSITSDSAWNWIRQFPGNKLEWMGYITFSGSTNYNPSLKSRLSITRDTSKNQFFLQLNSVTTEDTATYYCTGPFLDYWGQGTTLTVSS
# VL: DVVMTQTPLSLPVSLGDQATISCRSSLSLVLSNRITYLQWYLQKPGQSPKLLIYKVSNRFSGVPDRFSGSGSGTDFTLKISRVEAEDLGVYFCSQSSHFPWTFGGGTKLEIKR
# notes: Used as mouse ascites or as antibody purified from ascites; also called Mouse-Mouse hybridoma 13B (FERM BP-11304)
# Molecular target: T1, HPV51 L1/L2-capsid
# Experiment: ELISA on immobilized L1/L2-capsid, purified antibody 250 ng/well
binder,measurement,value
B1,binding result,binds

# From patent US20130337438A1 (JAPAN HEALTH SCIENCES FOUNDATION, published 2013)
